Patent US20240402174A1 (Takeda / Millennium, published 2024)

How the values were obtained:
GII.6 VLP = molecular target: T1, GII.6 VLP (norovirus Hu/GII.6/Ehime120246/2012/JP); experiment: multiplex microsphere immunoassay
T1 construct: also called Hu/GII.6/Ehime120246/2012/JP
T1 chain: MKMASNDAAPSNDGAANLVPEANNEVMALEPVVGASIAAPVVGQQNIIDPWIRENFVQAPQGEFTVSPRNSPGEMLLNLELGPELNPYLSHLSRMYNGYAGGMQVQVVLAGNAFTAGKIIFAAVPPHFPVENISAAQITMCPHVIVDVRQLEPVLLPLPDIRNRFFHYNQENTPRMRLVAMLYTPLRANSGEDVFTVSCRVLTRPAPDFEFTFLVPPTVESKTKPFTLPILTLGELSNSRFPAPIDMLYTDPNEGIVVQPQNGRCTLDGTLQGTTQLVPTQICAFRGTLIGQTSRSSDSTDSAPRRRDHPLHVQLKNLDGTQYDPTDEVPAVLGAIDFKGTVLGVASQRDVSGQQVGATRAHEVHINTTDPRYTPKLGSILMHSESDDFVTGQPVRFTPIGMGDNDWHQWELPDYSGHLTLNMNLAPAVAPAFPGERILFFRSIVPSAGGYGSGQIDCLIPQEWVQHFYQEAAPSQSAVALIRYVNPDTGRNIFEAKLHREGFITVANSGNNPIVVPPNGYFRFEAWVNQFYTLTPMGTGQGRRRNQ

GII.4/Consensus VLP = molecular target: T2, GII.4/Consensus VLP (norovirus GII.4 consensus sequence, UniProt P54635 1-539); experiment: PGM blockade assay, serially diluted mAb
T2 chain: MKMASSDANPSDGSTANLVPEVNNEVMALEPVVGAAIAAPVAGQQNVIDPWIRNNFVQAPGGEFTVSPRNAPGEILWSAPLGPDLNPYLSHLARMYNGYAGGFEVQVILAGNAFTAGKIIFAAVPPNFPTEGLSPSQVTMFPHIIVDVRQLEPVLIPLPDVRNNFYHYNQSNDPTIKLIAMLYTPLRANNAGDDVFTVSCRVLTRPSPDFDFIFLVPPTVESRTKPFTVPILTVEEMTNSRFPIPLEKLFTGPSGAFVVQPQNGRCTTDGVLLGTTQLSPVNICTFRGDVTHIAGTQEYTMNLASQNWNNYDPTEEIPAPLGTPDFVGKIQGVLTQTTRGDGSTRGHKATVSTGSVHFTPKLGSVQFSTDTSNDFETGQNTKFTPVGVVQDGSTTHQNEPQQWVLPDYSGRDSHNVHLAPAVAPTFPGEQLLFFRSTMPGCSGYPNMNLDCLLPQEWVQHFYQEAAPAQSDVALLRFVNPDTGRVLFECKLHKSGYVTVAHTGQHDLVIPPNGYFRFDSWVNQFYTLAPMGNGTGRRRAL
Procedure: (§1) Plates were washed 3 times with PBST before use. […] The mixture was transferred to the PGM-coated plates including VLP-only controls and incubation carried out for 1 h at 22° C. or 37° C. Following 3 washes with PBST, detection antibody specific for the corresponding VLP was added and the plates were incubated at room temperature for 1 h and then washed 3 times with PBST. […] Following 3 washes, enzyme substrate (ABTS, KPL) was added and allowed to react for 12 min at room temperature. ABTS Peroxidase Stop Solution (KPL) was then added and plates were read at a wavelength of 450 nm in a Molecular Devices plate reader using SoftMax Pro Software (Molecular Devices, Downingtown, PA, USA) to obtain the Optical Density (GD) of each well.
(§2) The following, day corresponding dilutions incubated with VLPs were transferred to the PGM-coated plates. The OD data was curve fit and blocking titers were calculated as the supernatant dilution interpolated at 1/2 the maximum OD for the plate. The blocking titers represent the supernatant dilution that produces a 50% reduction in VLP binding to PGM. The maximum OD for the plate was calculated from the VLP only control.

GII.4/Den Haag VLP = molecular target: T3, GII.4/Den Haag VLP (norovirus Hu/GII.4/DenHaag89/2006/NL, UniProt P54635 1-539); experiment: PGM blockade assay, serially diluted mAb
T3 construct: also called Hu/GII.4/DenHaag89/2006/NL
T3 chain: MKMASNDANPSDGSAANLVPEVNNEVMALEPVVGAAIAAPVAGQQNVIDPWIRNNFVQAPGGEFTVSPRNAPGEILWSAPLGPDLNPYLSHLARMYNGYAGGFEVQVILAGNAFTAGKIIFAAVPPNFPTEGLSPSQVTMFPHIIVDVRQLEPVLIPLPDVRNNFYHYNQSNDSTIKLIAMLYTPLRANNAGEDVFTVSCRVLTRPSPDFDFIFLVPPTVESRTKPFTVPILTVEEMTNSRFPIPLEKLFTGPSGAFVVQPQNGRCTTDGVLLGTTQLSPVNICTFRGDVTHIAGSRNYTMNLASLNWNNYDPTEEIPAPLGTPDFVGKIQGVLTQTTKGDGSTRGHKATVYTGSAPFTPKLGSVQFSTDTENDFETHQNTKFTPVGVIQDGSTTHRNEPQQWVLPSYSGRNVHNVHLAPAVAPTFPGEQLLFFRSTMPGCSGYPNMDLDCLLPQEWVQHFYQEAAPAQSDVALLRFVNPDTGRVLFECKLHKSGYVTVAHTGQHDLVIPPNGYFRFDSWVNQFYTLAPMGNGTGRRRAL
Procedure: as §1, §2

GI.3 VLP = molecular target: T4, GI.3 VLP (norovirus Hu/GI.3/JKPG_883/SWE/2007); experiment: multiplex microsphere immunoassay
T4 construct: also called GI.3 Sweden
T4 chain: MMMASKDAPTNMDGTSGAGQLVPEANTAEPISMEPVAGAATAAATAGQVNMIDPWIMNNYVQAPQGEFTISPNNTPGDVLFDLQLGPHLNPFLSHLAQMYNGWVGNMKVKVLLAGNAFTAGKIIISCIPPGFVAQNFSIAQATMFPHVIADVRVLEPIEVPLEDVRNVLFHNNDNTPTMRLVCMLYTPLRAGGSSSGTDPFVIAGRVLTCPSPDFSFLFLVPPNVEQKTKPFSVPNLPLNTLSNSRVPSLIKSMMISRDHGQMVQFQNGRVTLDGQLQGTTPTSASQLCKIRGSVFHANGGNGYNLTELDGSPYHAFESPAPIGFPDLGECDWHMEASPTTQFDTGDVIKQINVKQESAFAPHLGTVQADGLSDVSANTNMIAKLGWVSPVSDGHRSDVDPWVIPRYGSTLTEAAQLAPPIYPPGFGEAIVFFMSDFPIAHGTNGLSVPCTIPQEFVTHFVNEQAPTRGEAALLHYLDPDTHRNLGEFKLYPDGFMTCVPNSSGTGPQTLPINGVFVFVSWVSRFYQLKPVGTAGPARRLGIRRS

GI.4 VLP = molecular target: T5, GI.4 VLP (norovirus Hu/GI.4/1643/2008/US); experiment: multiplex microsphere immunoassay
T5 construct: also called GI.4 US
T5 chain: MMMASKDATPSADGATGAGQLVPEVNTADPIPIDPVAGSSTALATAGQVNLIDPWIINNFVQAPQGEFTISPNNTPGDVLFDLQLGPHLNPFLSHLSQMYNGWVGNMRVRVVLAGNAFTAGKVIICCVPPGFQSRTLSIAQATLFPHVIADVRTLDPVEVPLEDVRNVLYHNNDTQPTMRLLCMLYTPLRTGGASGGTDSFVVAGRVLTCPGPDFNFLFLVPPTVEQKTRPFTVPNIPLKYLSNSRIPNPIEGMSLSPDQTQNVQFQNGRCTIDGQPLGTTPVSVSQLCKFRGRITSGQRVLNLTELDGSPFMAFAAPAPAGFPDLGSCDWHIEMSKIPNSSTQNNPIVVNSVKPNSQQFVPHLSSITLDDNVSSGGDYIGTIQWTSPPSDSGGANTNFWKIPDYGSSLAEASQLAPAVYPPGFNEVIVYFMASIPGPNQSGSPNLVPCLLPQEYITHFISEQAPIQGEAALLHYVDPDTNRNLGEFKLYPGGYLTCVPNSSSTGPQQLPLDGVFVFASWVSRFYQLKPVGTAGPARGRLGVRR

B1: human mAb 1227 (antibody, V domains shown)
VH: QVQLVQSGGGMVQPGGSLSLSCAASGFTLSNYAMTWVRQAPGKGLEWVSSIGGSGGTTYYADSVKGRFTISRDSSMNTLYLQMSNLRAGDTAVYYCAKDKTRTLRLGYSGMDVWGQGTTVTVSS
VL: DIRLTQSPSSLSASVGDRVTITCRASQSISSYLNWYQQKPGKAPDLLIYGASSLQSGVPSRFSGSGSGTDFTLTISSLQPEDFGNYYCQQSFSTPRTFGQGTKVEL
notes: also called A1227
- EC50 (GII.6 VLP): 0.071 µg/mL
- blocking titer (GII.4/Consensus VLP): 447
- blocking titer (GII.4/Den Haag VLP): 162

B2: human mAb 1431 (antibody, V domains shown)
VH: QVQLVQSGGGLVQPGGSLRLSCAASGFAFSNHGMHWVRQAPGKGLEWLSYISGSTGAIHYANSVKGRFTISRDNARNSLDLQMNSLGDEDTAVYYCARDGPRPDGTGYAGPSNDYWGQGTLVSVSS
VL: EIVLTQSPASLSLSPGERATLSCKASRSISIYLAWYQQKPGQAPRLLIYDASYRAIGIPARFSGSGSGTDFTLTISNLEPEDFAVYYCQHRSSWPALTFGGGTKVEI
notes: also called A1431
- binding result (GII.6 VLP): no binding
- blocking titer (GII.4/Consensus VLP): 139000
- blocking titer (GII.4/Den Haag VLP): 5720

B3: human mAb 1431 (antibody, V domains shown)
VH: QVQLVQSGGGLVQPGGSLRLSCAASGFAFSNHGMHWVRQAPGKGLEWLSYISGSTGAIHYANSVKGRFTISRDNARNSLDLQMNSLGDEDTAVYYCARDGPRPDGTGYAGPSNDYWGQGTLVSVSS
VL: EIVLTQSPASLSLSPGERATLSCKASRSISIYLAWYQQKPGQAPRLLIYDASYRAIGIPARFSGSGSGTDFTLTISNLEPEDFAVYYCQHRSSWPALTFGGGTKVEI
notes: also called A1431
- binding result (GI.3 VLP): no binding
- binding result (GI.4 VLP): no binding
